{"source": "the supplement of paper PMC9112550", "about": "“Optimization of the antimicrobial peptide Bac7 by deep mutational scanning” (BMC Biology, 2022);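 also: peptides expressed intracellularly from a pBAD plasmid library in pooled LB shake-flask culture, induced with 0.3% L-arabinose, DNA abundance read by NGS, three biological replicates, DESeq2 with apeglm shrinkage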"}
{"system": "Escherichia coli TOP10", "assay": "shrunken log2 fold change of peptide-encoding DNA abundance (4.5 h post-induction vs induction); higher = less antimicrobial activity (less host growth inhibition)", "conditions": "time post-induction: 4.5 h; library: site-saturation at positions 5, 18, 19, 20"}
{"sequence": "RRIRWRPPRLPRPRPRPDIGPRP", "shrunken log2 fold change": -0.0157}
{"sequence": "RRIRARPPRLPRPRPRPNSIPRP", "shrunken log2 fold change": -0.125}
{"sequence": "RRIRQRPPRLPRPRPRPTTIPRP", "shrunken log2 fold change": -0.116}
{"sequence": "RRIRRRPPRLPRPRPRPHNYPRP", "shrunken log2 fold change": 0.103}
{"sequence": "RRIRPRPPRLPRPRPRPEPVPRP", "shrunken log2 fold change": 0.12}
{"sequence": "RRIRQRPPRLPRPRPRPIYNPRP", "shrunken log2 fold change": -0.478}
{"sequence": "RRIRNRPPRLPRPRPRPDKPPRP", "shrunken log2 fold change": -0.14}
{"sequence": "RRIRKRPPRLPRPRPRPVHQPRP", "shrunken log2 fold change": 0.305}
{"sequence": "RRIRARPPRLPRPRPRPYKGPRP", "shrunken log2 fold change": -0.144}
{"sequence": "RRIRMRPPRLPRPRPRPAWLPRP", "shrunken log2 fold change": 0.818}
{"sequence": "RRIRARPPRLPRPRPRPILKPRP", "shrunken log2 fold change": 0.221}
{"sequence": "RRIRWRPPRLPRPRPRPQSLPRP", "shrunken log2 fold change": 0.00606}
{"sequence": "RRIRIRPPRLPRPRPRPNARPRP", "shrunken log2 fold change": 0.0831}
{"sequence": "RRIRRRPPRLPRPRPRPPYVPRP", "shrunken log2 fold change": 0.181}
{"sequence": "RRIRERPPRLPRPRPRPMLVPRP", "shrunken log2 fold change": -0.225}
{"sequence": "RRIRWRPPRLPRPRPRPREHPRP", "shrunken log2 fold change": 0.822}
{"sequence": "RRIRERPPRLPRPRPRPTYEPRP", "shrunken log2 fold change": -1.47}
{"sequence": "RRIRMRPPRLPRPRPRPSWFPRP", "shrunken log2 fold change": 0.0112}
{"sequence": "RRIRMRPPRLPRPRPRPGLAPRP", "shrunken log2 fold change": 1.51}
{"sequence": "RRIRWRPPRLPRPRPRPENFPRP", "shrunken log2 fold change": 0.00343}
{"sequence": "RRIRNRPPRLPRPRPRPQLDPRP", "shrunken log2 fold change": 0.112}
{"sequence": "RRIRPRPPRLPRPRPRPRVWPRP", "shrunken log2 fold change": 0.482}
{"sequence": "RRIRNRPPRLPRPRPRPVFTPRP", "shrunken log2 fold change": -0.349}
{"sequence": "RRIRSRPPRLPRPRPRPYEFPRP", "shrunken log2 fold change": -0.438}
{"sequence": "RRIRARPPRLPRPRPRPQDNPRP", "shrunken log2 fold change": -0.0337}
{"sequence": "RRIRKRPPRLPRPRPRPTVAPRP", "shrunken log2 fold change": 0.814}
{"sequence": "RRIRHRPPRLPRPRPRPKILPRP", "shrunken log2 fold change": 0.0673}
{"sequence": "RRIRMRPPRLPRPRPRPAPCPRP", "shrunken log2 fold change": 0.835}
{"sequence": "RRIRCRPPRLPRPRPRPLCCPRP", "shrunken log2 fold change": -0.237}
{"sequence": "RRIRTRPPRLPRPRPRPFLWPRP", "shrunken log2 fold change": 0.189}
{"sequence": "RRIRTRPPRLPRPRPRPSCYPRP", "shrunken log2 fold change": -0.654}
{"sequence": "RRIRCRPPRLPRPRPRPDDYPRP", "shrunken log2 fold change": 0.0185}
{"sequence": "RRIRHRPPRLPRPRPRPPDHPRP", "shrunken log2 fold change": 0.265}
{"sequence": "RRIRMRPPRLPRPRPRPRADPRP", "shrunken log2 fold change": 1.73}
{"sequence": "RRIRCRPPRLPRPRPRPQFHPRP", "shrunken log2 fold change": -0.635}
{"sequence": "RRIRKRPPRLPRPRPRPTDHPRP", "shrunken log2 fold change": 0.375}
{"sequence": "RRIRYRPPRLPRPRPRPDPCPRP", "shrunken log2 fold change": -0.0185}
{"sequence": "RRIRQRPPRLPRPRPRPQRHPRP", "shrunken log2 fold change": 0.0218}
{"sequence": "RRIRMRPPRLPRPRPRPHTMPRP", "shrunken log2 fold change": 0.124}
{"sequence": "RRIRHRPPRLPRPRPRPGWFPRP", "shrunken log2 fold change": 0.0663}
{"sequence": "RRIRSRPPRLPRPRPRPMLQPRP", "shrunken log2 fold change": -0.0416}
{"sequence": "RRIRHRPPRLPRPRPRPLLEPRP", "shrunken log2 fold change": 0.0851}
{"sequence": "RRIRPRPPRLPRPRPRPQHKPRP", "shrunken log2 fold change": -0.449}
{"sequence": "RRIRIRPPRLPRPRPRPFPYPRP", "shrunken log2 fold change": -0.288}
{"sequence": "RRIRQRPPRLPRPRPRPLDAPRP", "shrunken log2 fold change": 0.109}
{"sequence": "RRIRYRPPRLPRPRPRPHKNPRP", "shrunken log2 fold change": -1.06}
{"sequence": "RRIRWRPPRLPRPRPRPVTIPRP", "shrunken log2 fold change": -0.269}
{"sequence": "RRIRSRPPRLPRPRPRPYFVPRP", "shrunken log2 fold change": -1.14}
{"sequence": "RRIRDRPPRLPRPRPRPMAPPRP", "shrunken log2 fold change": 0.982}
{"sequence": "RRIRNRPPRLPRPRPRPYFGPRP", "shrunken log2 fold change": -0.284}
{"sequence": "RRIRGRPPRLPRPRPRPYENPRP", "shrunken log2 fold change": -0.0711}
{"sequence": "RRIRGRPPRLPRPRPRPCPIPRP", "shrunken log2 fold change": -0.0298}
{"sequence": "RRIRMRPPRLPRPRPRPKLDPRP", "shrunken log2 fold change": 1.7}
{"sequence": "RRIRFRPPRLPRPRPRPNYTPRP", "shrunken log2 fold change": -1.07}
{"sequence": "RRIRFRPPRLPRPRPRPTCNPRP", "shrunken log2 fold change": -0.178}
{"sequence": "RRIRDRPPRLPRPRPRPCNRPRP", "shrunken log2 fold change": -0.0148}
{"sequence": "RRIRERPPRLPRPRPRPTTGPRP", "shrunken log2 fold change": -0.0235}
{"sequence": "RRIRARPPRLPRPRPRPSEAPRP", "shrunken log2 fold change": 0.52}
{"sequence": "RRIRPRPPRLPRPRPRPPWPPRP", "shrunken log2 fold change": 0.688}
{"sequence": "RRIRQRPPRLPRPRPRPELYPRP", "shrunken log2 fold change": -0.113}
{"sequence": "RRIRIRPPRLPRPRPRPWEVPRP", "shrunken log2 fold change": -0.00884}
{"sequence": "RRIRYRPPRLPRPRPRPVIHPRP", "shrunken log2 fold change": -0.0643}
{"sequence": "RRIRHRPPRLPRPRPRPTRPPRP", "shrunken log2 fold change": 0.234}
{"sequence": "RRIRFRPPRLPRPRPRPKHCPRP", "shrunken log2 fold change": -0.0918}
{"sequence": "RRIRLRPPRLPRPRPRPEDGPRP", "shrunken log2 fold change": -0.0468}
{"sequence": "RRIRTRPPRLPRPRPRPWMRPRP", "shrunken log2 fold change": 0.556}
{"sequence": "RRIRLRPPRLPRPRPRPWHAPRP", "shrunken log2 fold change": -0.194}
{"sequence": "RRIRSRPPRLPRPRPRPFCKPRP", "shrunken log2 fold change": -0.449}
{"sequence": "RRIRARPPRLPRPRPRPRNLPRP", "shrunken log2 fold change": -0.0356}
{"sequence": "RRIRMRPPRLPRPRPRPFKRPRP", "shrunken log2 fold change": 0.0293}
{"sequence": "RRIRYRPPRLPRPRPRPSNMPRP", "shrunken log2 fold change": -1.1}
{"sequence": "RRIRSRPPRLPRPRPRPNQRPRP", "shrunken log2 fold change": 0.0415}
{"sequence": "RRIRSRPPRLPRPRPRPTHGPRP", "shrunken log2 fold change": 0.28}
{"sequence": "RRIRIRPPRLPRPRPRPRGPPRP", "shrunken log2 fold change": 0.81}
{"sequence": "RRIRSRPPRLPRPRPRPMSNPRP", "shrunken log2 fold change": 0.129}
{"sequence": "RRIRLRPPRLPRPRPRPWIFPRP", "shrunken log2 fold change": -0.0453}
{"sequence": "RRIRYRPPRLPRPRPRPDLTPRP", "shrunken log2 fold change": -0.0272}
{"sequence": "RRIRNRPPRLPRPRPRPPPIPRP", "shrunken log2 fold change": 0.801}
{"sequence": "RRIRQRPPRLPRPRPRPEFDPRP", "shrunken log2 fold change": 0.00351}
{"sequence": "RRIRFRPPRLPRPRPRPPMFPRP", "shrunken log2 fold change": -0.0657}
{"sequence": "RRIRSRPPRLPRPRPRPDNCPRP", "shrunken log2 fold change": -0.103}
{"sequence": "RRIRDRPPRLPRPRPRPEFHPRP", "shrunken log2 fold change": 0.858}
{"sequence": "RRIRVRPPRLPRPRPRPETMPRP", "shrunken log2 fold change": 0.0389}
{"sequence": "RRIRHRPPRLPRPRPRPMPFPRP", "shrunken log2 fold change": 0.0462}
{"sequence": "RRIRIRPPRLPRPRPRPKFWPRP", "shrunken log2 fold change": -0.0477}
{"sequence": "RRIRDRPPRLPRPRPRPFREPRP", "shrunken log2 fold change": -0.376}
{"sequence": "RRIRLRPPRLPRPRPRPHFKPRP", "shrunken log2 fold change": -0.367}
{"sequence": "RRIRGRPPRLPRPRPRPGGFPRP", "shrunken log2 fold change": 0.819}
{"sequence": "RRIRYRPPRLPRPRPRPICGPRP", "shrunken log2 fold change": -0.359}
{"sequence": "RRIRIRPPRLPRPRPRPGDQPRP", "shrunken log2 fold change": -0.0693}
{"sequence": "RRIRYRPPRLPRPRPRPAWPPRP", "shrunken log2 fold change": 0.363}
{"sequence": "RRIRCRPPRLPRPRPRPNFGPRP", "shrunken log2 fold change": -0.0314}
{"sequence": "RRIRTRPPRLPRPRPRPGVEPRP", "shrunken log2 fold change": -0.0469}
{"sequence": "RRIRRRPPRLPRPRPRPCIGPRP", "shrunken log2 fold change": -0.328}
{"sequence": "RRIRLRPPRLPRPRPRPRMTPRP", "shrunken log2 fold change": 0.206}
{"sequence": "RRIRRRPPRLPRPRPRPNISPRP", "shrunken log2 fold change": -0.263}
{"sequence": "RRIRSRPPRLPRPRPRPRGYPRP", "shrunken log2 fold change": 0.13}
{"sequence": "RRIRPRPPRLPRPRPRPVEKPRP", "shrunken log2 fold change": 0.00127}
{"sequence": "RRIRDRPPRLPRPRPRPQQYPRP", "shrunken log2 fold change": -0.473}
{"sequence": "RRIRLRPPRLPRPRPRPYRYPRP", "shrunken log2 fold change": -0.254}
{"sequence": "RRIRLRPPRLPRPRPRPCPTPRP", "shrunken log2 fold change": 0.0726}
{"sequence": "RRIRCRPPRLPRPRPRPTKVPRP", "shrunken log2 fold change": -0.413}
{"sequence": "RRIRWRPPRLPRPRPRPVERPRP", "shrunken log2 fold change": 0.398}
{"sequence": "RRIRKRPPRLPRPRPRPEGLPRP", "shrunken log2 fold change": 1.05}
{"sequence": "RRIRERPPRLPRPRPRPSFFPRP", "shrunken log2 fold change": 0.221}
{"sequence": "RRIRPRPPRLPRPRPRPMGSPRP", "shrunken log2 fold change": -0.0938}
{"sequence": "RRIRKRPPRLPRPRPRPNICPRP", "shrunken log2 fold change": -0.0826}
{"sequence": "RRIRRRPPRLPRPRPRPLVIPRP", "shrunken log2 fold change": -0.0686}
{"sequence": "RRIRRRPPRLPRPRPRPWDMPRP", "shrunken log2 fold change": 0.0681}
{"sequence": "RRIRDRPPRLPRPRPRPTYGPRP", "shrunken log2 fold change": -0.257}
{"sequence": "RRIRKRPPRLPRPRPRPQSYPRP", "shrunken log2 fold change": 0.04}
{"sequence": "RRIRGRPPRLPRPRPRPAMSPRP", "shrunken log2 fold change": 0.508}
{"sequence": "RRIRLRPPRLPRPRPRPQAMPRP", "shrunken log2 fold change": 0.00366}
{"sequence": "RRIRDRPPRLPRPRPRPPGVPRP", "shrunken log2 fold change": 0.127}
{"sequence": "RRIRCRPPRLPRPRPRPSVAPRP", "shrunken log2 fold change": -0.276}
{"sequence": "RRIRARPPRLPRPRPRPYNAPRP", "shrunken log2 fold change": -1.2}
{"sequence": "RRIRQRPPRLPRPRPRPQREPRP", "shrunken log2 fold change": 0.00728}
{"sequence": "RRIRLRPPRLPRPRPRPQIHPRP", "shrunken log2 fold change": -0.154}
{"sequence": "RRIRNRPPRLPRPRPRPDVYPRP", "shrunken log2 fold change": -0.0277}
{"sequence": "RRIRNRPPRLPRPRPRPWDRPRP", "shrunken log2 fold change": -0.0515}
{"sequence": "RRIRIRPPRLPRPRPRPHYQPRP", "shrunken log2 fold change": -0.463}
{"sequence": "RRIRCRPPRLPRPRPRPRYRPRP", "shrunken log2 fold change": -0.176}
{"sequence": "RRIRVRPPRLPRPRPRPMIAPRP", "shrunken log2 fold change": 0.261}
{"sequence": "RRIRERPPRLPRPRPRPVIMPRP", "shrunken log2 fold change": -0.458}
{"sequence": "RRIRPRPPRLPRPRPRPVSEPRP", "shrunken log2 fold change": -0.0288}
